Numbering of substitutions follows the chain as printed.
Tests used:
EGFI-Cr1 V40E = target: T1, EGFI-Cr1 V40E (human); assay: direct ELISA, coated EGFI-Cr1 fusion, 0.1 µg/ml antibody
T1 construct: not shown: The fused constant region of human immunoglobulin gamma 1 heavy chain (Cr1)
T1 chain: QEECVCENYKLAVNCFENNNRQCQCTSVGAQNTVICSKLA

EGFI-Cr1 E26D = target: T2, EGFI-Cr1 E26D (human, UniProt P16422 24-63); assay: as above
T2 construct: not shown: The fused constant region of human immunoglobulin gamma 1 heavy chain (Cr1)
T2 chain: T1 chain with E3D, E17V

EGFI-Cr1 A35T = target: T3, EGFI-Cr1 A35T (human, UniProt P16422 24-63); assay: as above
T3 construct: not shown: The fused constant region of human immunoglobulin gamma 1 heavy chain (Cr1)
T3 chain: T1 chain with A12T, E17V

EGFI-Cr1 T49A = target: T4, EGFI-Cr1 T49A (human, UniProt P16422 24-63); assay: as above
T4 construct: not shown: the constant region of human immunoglobulin gamma 1 heavy chain (Cr1) fused at the C-terminus
T4 chain: T1 chain with E17V, T26A

EGFI-Cr1 F39A = target: T5, EGFI-Cr1 F39A (human, UniProt P16422 24-63); assay: as above
T5 construct: not shown: The fused constant region of human immunoglobulin gamma 1 heavy chain (Cr1)
T5 chain: T1 chain with F16A, E17V

EGFI-Cr1 N42E = target: T6, EGFI-Cr1 N42E (human, UniProt P16422 24-63); assay: as above
T6 construct: not shown: the constant region of human immunoglobulin gamma 1 heavy chain (Cr1) fused at the C-terminus
T6 chain: T1 chain with E17V, N19E

[1] = target: T7, EGFI-Cr1 wild type (first EGF-like repeat of human EpCAM fused to the constant region of human immunoglobulin … (human, UniProt P01857-1 99-330 = IgG part)); assay: as above
T7 construct: cDNA covered aa 1-63; Expressed in COS-7 cells; also called WT; EpCAM EGF-1 fusion protein WT

EGFI-Cr1 Q24A = target: T8, EGFI-Cr1 Q24A (human, UniProt P16422 25-63); assay: as above
T8 construct: not shown: The fused constant region of human immunoglobulin gamma 1 heavy chain (Cr1)
T8 chain: T1 chain with Q1A, E17V

EGFI-Cr1 Q45A = target: T9, EGFI-Cr1 Q45A (human, UniProt P16422 24-63); assay: as above
T9 construct: not shown: the constant region of human immunoglobulin gamma 1 heavy chain (Cr1) fused at the C-terminus
T9 chain: T1 chain with E17V, Q22A

EGFI-Cr1 Q47A = target: T10, EGFI-Cr1 Q47A (human, UniProt P16422 24-63); assay: as above
T10 construct: not shown: the constant region of human immunoglobulin gamma 1 heavy chain (Cr1) fused at the C-terminus
T10 chain: T1 chain with E17V, Q24A

EGFI-Cr1 N41A = target: T11, EGFI-Cr1 N41A (human, UniProt P16422 24-63); assay: as above
T11 construct: not shown: The fused constant region of human immunoglobulin gamma 1 heavy chain (Cr1)
T11 chain: T1 chain with E17V, N18A

EGFI-Cr1 N37R = target: T12, EGFI-Cr1 N37R (human); assay: as above
T12 construct: not shown: The fused constant region of human immunoglobulin gamma 1 heavy chain (Cr1)
T12 chain: T1 chain with N14R, E17V

EGFI-Cr1 R44G = target: T13, EGFI-Cr1 R44G (human, UniProt P16422 24-63); assay: as above
T13 construct: not shown: the constant region of human immunoglobulin gamma 1 heavy chain (Cr1) fused at the C-terminus
T13 chain: T1 chain with E17V, R21G

EGFI-Cr1 N43A = target: T14, EGFI-Cr1 N43A (human, UniProt P16422 24-63); assay: as above
T14 construct: not shown: the constant region of human immunoglobulin gamma 1 heavy chain (Cr1) fused at the C-terminus
T14 chain: T1 chain with E17V, N20A

EGFI-Cr1 E25K = target: T15, EGFI-Cr1 E25K (human, UniProt P16422 24-63); assay: as above
T15 construct: not shown: The fused constant region of human immunoglobulin gamma 1 heavy chain (Cr1)
T15 chain: T1 chain with E2K, E17V

[2] = target: T16, human EpCAM (epithelial cell adhesion/activating molecule) (human, UniProt P16422 24-314); assay: cell-based or functional assay
T16 sequence: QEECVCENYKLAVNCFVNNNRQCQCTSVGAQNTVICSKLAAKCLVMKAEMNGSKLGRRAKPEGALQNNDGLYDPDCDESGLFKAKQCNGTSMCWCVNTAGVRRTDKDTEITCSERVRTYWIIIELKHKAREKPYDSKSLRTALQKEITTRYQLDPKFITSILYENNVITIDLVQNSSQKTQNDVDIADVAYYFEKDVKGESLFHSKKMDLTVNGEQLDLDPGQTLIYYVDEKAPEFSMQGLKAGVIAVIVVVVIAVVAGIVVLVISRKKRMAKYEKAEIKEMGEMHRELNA

[3] = target: T16, human EpCAM (epithelial cell …); assay: cell-based or functional assay; remark: listed apart in the source
[4] = target: T16, human EpCAM (epithelial cell …); assay: flow cytometry, CHO/EpCAM cells, 0.1 µg/ml antibody
Procedure: A 300× dilution of human cell hyper-immune serum (HPS 300×) was used as binding positive control for both cell lines here. After 1 hr incubation at 4° C., cells were washed twice with 200 μl FACS buffer (1×PBS containing 1% FBS), stained with 100 μl of 1 μg/ml goat-anti-mouse IgG-PE (Southern Biotech, Cat. No. 1032-09) in FACS buffer and then incubated at 4° C. for 30 min. Cells were washed thrice with FACS buffer and analyzed by flow cytometry (BD LSR, BD Life Sciences).

B1: murine monoclonal antibody 6D11 (antibody, mouse IgG1, V domains shown)
VH: EVQLVESGGDLVKPGGSLKLSCAASGFAFDSYGMSWIRQTPGTRLEWVATISSGGYYTYYEDNVKGRFIISRDNAKNTLDLQMSGLKSEDAATYYCARRGNYDVDYYAMDYWGQGTSVIVSS
VL: DVVLTQIPLSLPVSLGDQASISCRSSQSLEHSNGNTYLHWYLQKPGQSPKLLIYKVSNRFSGVPDRFSGSGSGTDFTLKISRVEAEDLGVYFCSQSTHVPPWTFGGGTKLEFKR
notes: Mouse IgG1, kappa, from hybridoma; also called m338-6D11.8
Question: Which results are given for B1?
Answer: relative binding activity (% of WT) (EGFI-Cr1 V40E): 2%; relative binding activity (% of WT) (EGFI-Cr1 E26D): 57%; relative binding activity (% of WT) (EGFI-Cr1 A35T): 39%; relative binding activity (% of WT) (EGFI-Cr1 T49A): 67%; relative binding activity (% of WT) (EGFI-Cr1 F39A): 23%; relative binding activity (% of WT) (EGFI-Cr1 N42E): 83%; relative binding activity (% of WT) [1]: 100%; relative binding activity (% of WT) (EGFI-Cr1 Q24A): 47%; relative binding activity (% of WT) (EGFI-Cr1 Q45A): 8%; relative binding activity (% of WT) (EGFI-Cr1 Q47A): 33%; relative binding activity (% of WT) (EGFI-Cr1 N41A): 2%; relative binding activity (% of WT) (EGFI-Cr1 N37R): 69%; relative binding activity (% of WT) (EGFI-Cr1 R44G): 2%; relative binding activity (% of WT) (EGFI-Cr1 N43A): 65%; relative binding activity (% of WT) (EGFI-Cr1 E25K): 4%; % Annexin V/PI-positive cells, DLD-1, 1.0 µg/ml mAb [2]: 28%; % Annexin V/PI-positive cells, DLD-1, 3.0 µg/ml mAb [2]: 53%; % Annexin V/PI-positive cells, DLD-1, 10 µg/ml mAb [2]: 62%; % Annexin V/PI-positive cells, FaDu, 1.0 µg/ml mAb [2]: 26%; % Annexin V/PI-positive cells, FaDu, 3.0 µg/ml mAb [2]: 39%; % Annexin V/PI-positive cells, FaDu, 10 µg/ml mAb [2]: 37%; % Annexin V/PI-positive cells, LNCaP, 1.0 µg/ml mAb [2]: 38%; % Annexin V/PI-positive cells, LNCaP, 3.0 µg/ml mAb [2]: 43%; % Annexin V/PI-positive cells, LNCaP, 10 µg/ml mAb [2]: 44%; % Annexin V/PI-positive cells, NCI-H520, 1.0 µg/ml mAb [2]: 38%; % Annexin V/PI-positive cells, NCI-H520, 3.0 µg/ml mAb [2]: 42%; % Annexin V/PI-positive cells, NCI-H520, 10 µg/ml mAb [2]: 49%; % Annexin V/PI-positive cells, NCI-N87, 1.0 µg/ml mAb [2]: 41%; % Annexin V/PI-positive cells, NCI-N87, 3.0 µg/ml mAb [2]: 51%; % Annexin V/PI-positive cells, NCI-N87, 10 µg/ml mAb [2]: 57%; % Annexin V/PI-positive cells, NIH:OVCAR-3, 1.0 µg/ml mAb [2]: 46%; % Annexin V/PI-positive cells, NIH:OVCAR-3, 3.0 µg/ml mAb [2]: 52%; % Annexin V/PI-positive cells, NIH:OVCAR-3, 10 µg/ml mAb [2]: 55%; % Annexin V/PI-positive cells, T-47D, 1.0 µg/ml mAb [2]: 25%; % Annexin V/PI-positive cells, T-47D, 3.0 µg/ml mAb [2]: 40%; % Annexin V/PI-positive cells, T-47D, 10 µg/ml mAb [2]: 44%; % of Annexin V + PI staining (untreated background subtracted), NCI-H358, 10 µg/ml mAb, Exp1 [3]: 45%; % of Annexin V + PI staining (untreated background subtracted), NCI-H358, 10 µg/ml mAb, Exp2 [3]: 40%; % of Annexin V + PI staining (untreated background subtracted), NCI-H358, 10 µg/ml mAb, Exp3 [3]: 44%; % of Annexin V + PI staining (untreated background subtracted), NCI-H358, 10 µg/ml mAb, Exp4 [3]: 43%; % of Annexin V + PI staining (untreated background subtracted), NCI-H358, 10 µg/ml mAb, Exp5 [3]: 40%; MFI [4]: 1350 MFI

Source: patent publication US20110165161A1, “ANTI-EPCAM ANTIBODIES THAT INDUCE APOPTOSIS OF CANCER CELLS AND METHODS USING SAME” (priority 2009, published 2011)
